Assay [1] addresses acetylcholine receptor. Nature of the assay: SPR, AchR immobilized on chip, peptide at 10 uM.
For assay [2], the target named is acetylcholine receptor. Nature of the assay: SPR, peptide at 10 uM over immobilized acetylcholine receptor. In general terms: In SPR one partner is held on a chip, and binding of the other changes the refractive index at the surface.

In turn, RRRLKK [6mer-2-1] had a Binding affinity in assay [1] of 131 RU. In assay [1], RSILRR [6mer-2-18] came in with a Binding affinity of 124 RU.

In assay [2], KSVLRK [6mer-2-129] displayed a Binding affinity (RU) of 139 RU. Still for that read-out and setting: for KWQYRK [6mer-2-115] the value was 144 RU; for RWFYKK [6mer-2-135], 124 RU. In assay [1], KQVQKR [6mer-2-25] gave a Binding affinity of 148 RU. KWFSRR [6mer-2-118] had a Binding affinity (RU) in assay [2] of 135 RU. RWVRKK [6mer-2-23] yielded a Binding affinity in assay [1] of 148 RU. Regarding KLQRKK [6mer-2-116], the Binding affinity (RU) in assay [2] was determined as 126 RU. In assay [1], KSICRR [6mer-2-6] returned a Binding affinity of 122 RU. Consider KRYSRK [6mer-2-113], for which the Binding affinity (RU) in assay [2] is 145 RU. Take RQFTKR [6mer-2-123]: in assay [2], the Binding affinity (RU) worked out at 146 RU. RQYTRK [6mer-2-13] came in with a Binding affinity in assay [1] of 123 RU. In assay [2], RGVCRR [6mer-2-130] displayed a Binding affinity (RU) of 122 RU.

Molecule RLFQRK [6mer-2-134] showed a Binding affinity (RU) in assay [2] of 148 RU.

In turn, RWRRKK [6mer-2-26] showed a Binding affinity in assay [1] of 121 RU. In assay [1], KVYSRK [6mer-2-3] returned a Binding affinity of 148 RU. In the case of RLQQKR [6mer-2-112], the Binding affinity (RU) in assay [2] was 142 RU. The same measure, in the same setting: the figure for KLQYRK [6mer-2-114] is 121 RU.

On to RQIRKK [6mer-2-22], for which, in assay [1], the Binding affinity stood at 124 RU. Still for that read-out and setting: the figure for KVFSKK [6mer-2-10] is 124 RU.

In assay [2], RLYLRK [6mer-2-127] returned a Binding affinity (RU) of 136 RU. In the case of KSLQKK [6mer-2-8], in assay [1], the Binding affinity was 135 RU. The same measure, in the same setting: for KVIRRK [6mer-2-27] the value was 128 RU; for KQVRKR [6mer-2-15], 133 RU. In turn, RQYQRR [6mer-2-11] showed a Binding affinity in assay [1] of 121 RU. RLFTRK [6mer-2-21] came in with a Binding affinity in assay [1] of 141 RU.

Turning to RWVSKR [6mer-2-5], in assay [1], the Binding affinity was 124 RU. In assay [1], RQFQRK [6mer-2-12] gave a Binding affinity of 147 RU. Regarding KRRLKK [6mer-2-133], the Binding affinity (RU) in assay [2] turned out to be 145 RU. The same measure, in the same setting: the figure for KLYCKK [6mer-2-132] is 139 RU; for KSYYRR [6mer-2-128] it is 147 RU.

For RVQTRR [6mer-2-20], the Binding affinity in assay [1] was 137 RU.

Regarding RGRQKK [6mer-2-14], the Binding affinity in assay [1] stood at 153 RU. RVITKK [6mer-2-122]: the Binding affinity (RU) in assay [2] stood at 125 RU. KLICRK [6mer-2-9] had a Binding affinity in assay [1] of 139 RU. RSFSKK [6mer-2-19] registered a Binding affinity in assay [1] of 135 RU. As for RSISKK [6mer-2-119], the Binding affinity (RU) in assay [2] came out at 139 RU. Turning to RWVTRR [6mer-2-17], the Binding affinity in assay [1] turned out to be 142 RU. In assay [1], RWYLKR [6mer-2-2] showed a Binding affinity of 139 RU.

KGVCRR [6mer-2-16] returned a Binding affinity in assay [1] of 121 RU. As for KWQLKR [6mer-2-124], the Binding affinity (RU) in assay [2] was 126 RU. As for KGIQRK [6mer-2-24], in assay [1], the Binding affinity turned out to be 141 RU.

In assay [2], KWLYRR [6mer-2-126] gave a Binding affinity (RU) of 148 RU. As to RSYYRR [6mer-2-4], the Binding affinity in assay [1] was found to be 125 RU. The molecule KRYTRK [6mer-2-117] showed a Binding affinity (RU) in assay [2] of 148 RU. On the same count and under the same terms, the figure for KVQLRR [6mer-2-125] is 142 RU; for RRQCRK [6mer-2-120] it is 146 RU; for KRVYRK [6mer-2-121] it is 137 RU. Same read-out and setting: for KQQTKR [6mer-2-131] the value was 148 RU. Regarding KSRCRK [6mer-2-7], the Binding affinity in assay [1] worked out at 126 RU.

These data come from patent US20250011363A1, “OPTIMIZED SHORTENED PEPTIDE THAT BINDS TO ACETYLCHOLINE RECEPTOR, AND USE THEREOF” (SKINMED CO., LTD., priority 2021, published 2025).
